{"source": "patent US20230235072A1", "about": "(DENALI THERAPEUTICS, published 2023)", "binders": {"B1": {"name": "loop-truncated human TfR apical domain displayed on phage (receptor)", "chain": "SSGLPNIPVQTISRAAAEKLFGNMEGDCPSDWKTDSTCRMVTSESKNVKLTVSNDSAQNSVIIVDKNGRLVYLVENPGGYVAYSKAATVTGKLVHANFGTKKDFEDLYTPVNGSIVIVRAGKITFAEKVANAESLNAIGVLIYMDQTKFPIVNAELSGP", "notes": "fused to phage coat, Myc-tagged; also called human TfR apical domain (phage)"}, "B2": {"name": "loop-truncated cynomolgus TfR apical domain displayed on phage (receptor)", "chain": "SSGLPNIPVQTISRAAAEKLFGNMEGDCPSDWKTDSTCKMVTSENKSVKLTVSNDSAQNSVIIVDKNGGLVYLVENPGGYVAYSKAATVTGKLVHANFGTKKDFEDLDSPVNGSIVIVRAGKITFAEKVANAESLNAIGVLIYMDQTKFPIVKADLSGP", "notes": "fused to phage coat, Myc-tagged; also called cyno apical domain (phage)"}, "B3": {"name": "Clone CH2C.17 (designed binder)", "chain": "PCPAPELLGGPSVFLFPPKPKDTLMISRTPEVTCVVVDMLWPVPEVKFNWYVDGVEVHNAKTKPREEVYHRPYRVVSVLTVLHQDWLNGKEYKCKVSNKALPAPIEKTISKAKGQPREPQVYTLPPSRDELTKNQVSLTCLVKGFYPSDIAVEWESNGQPENNYKTTPPVLDSDGSFFLYSKLTVDKSRWQQGNVFSCSVMHEALHNHYTQKSLSLSPGK", "notes": "modified Fc; found by yeast display, tested on phage with holo-Tf"}, "B4": {"name": "Clone CH2C.22 (designed binder)", "chain": "PCPAPELLGGPSVFLFPPKPKDTLMISRTPEVTCVVVDDDLTFQEVKFNWYVDGVEVHNAKTKPREELYVTPYRVVSVLTVLHQDWLNGKEYKCKVSNKALPAPIEKTISKAKGQPREPQVYTLPPSRDELTKNQVSLTCLVKGFYPSDIAVEWESNGQPENNYKTTPPVLDSDGSFFLYSKLTVDKSRWQQGNVFSCSVMHEALHNHYTQKSLSLSPGK", "notes": "as for B3"}, "B5": {"name": "Clone CH3B.11 (designed binder)", "chain": "PCPAPELLGGPSVFLFPPKPKDTLMISRTPEVTCVVVDVSHEDPEVKFNWYVDGVEVHNAKTKPREEQYNSTYRVVSVLTVLHQDWLNGKEYKCKVSNKALPAPIEKTISKAKGQPRFGLVTTLPPSRDELTKNQVSLTCLVKGFYPSDIAVEWESNGQPENNYKTTPPVLDSDGSFFLYSKLTVDKSRWQQGNVFSCSVMHEALHNHYGFHDLSLSPGK"}, "B6": {"name": "Clone CH3B.12 (designed binder)", "chain": "PCPAPELLGGPSVFLFPPKPKDTLMISRTPEVTCVVVDVSHEDPEVKFNWYVDGVEVHNAKTKPREEQYNSTYRVVSVLTVLHQDWLNGKEYKCKVSNKALPAPIEKTISKAKGQPRFDYVTTLPPSRDELTKNQVSLTCLVKGFYPSDIAVEWESNGQPENNYKTTPPVLDSDGSFFLYSKLTVDKSRWQQGNVFSCSVMHEALHNHYGFSDLSLSPGK"}, "B7": {"name": "Clone CH3C.35.N390.1 (designed binder)", "chain": "PCPAPELLGGPSVFLFPPKPKDTLMISRTPEVTCVVVDVSHEDPEVKFNWYVDGVEVHNAKTKPREEQYNSTYRVVSVLTVLHQDWLNGKEYKCKVSNKALPAPIEKTISKAKGQPREPQVYTLPPSRDELTKNQVSLTCLVKGFYPSDIAVEWESYGTEWSNYKTTPPVLDSDGSFFLYSKLTVSKSEWQQGFVFSCSVMHEALHNHYTQKSLSLSPGK"}, "B8": {"name": "Clone CH3C.35.20.1.1 (designed binder)", "chain": "PCPAPELLGGPSVFLFPPKPKDTLMISRTPEVTCVVVDVSHEDPEVKFNWYVDGVEVHNAKTKPREEQYNSTYRVVSVLTVLHQDWLNGKEYKCKVSNKALPAPIEKTISKAKGQPREPQVYTLPPSRDELTKNQVSLTCLVKGFYPSDIAVEWESFGTEWSSYKTTPPVLDSDGSFFLYSKLTVSKEEWQQGFVFSCSVMHEALHNHYTQKSLSLSPGK"}, "B9": {"name": "Clone CH3C.35.23.1.1 (designed binder)", "chain": "PCPAPELLGGPSVFLFPPKPKDTLMISRTPEVTCVVVDVSHEDPEVKFNWYVDGVEVHNAKTKPREEQYNSTYRVVSVLTVLHQDWLNGKEYKCKVSNKALPAPIEKTISKAKGQPREPQVYTLPPSRDELTKNQVSLTCLVKGFYPSDIAVEWESFGTEWSNYKTTPPVLDSDGSFFLYSKLTVSKEEWQQGFVFSCSVMHEALHNHYTQKSLSLSPGK"}, "B10": {"name": "Clone CH3C.35.23.2.1 (designed binder)", "chain": "PCPAPELLGGPSVFLFPPKPKDTLMISRTPEVTCVVVDVSHEDPEVKFNWYVDGVEVHNAKTKPREEQYNSTYRVVSVLTVLHQDWLNGKEYKCKVSNKALPAPIEKTISKAKGQPREPQVYTLPPSRDELTKNQVSLTCLVKGFYPSDIAVEWESYGTEWANYKTTPPVLDSDGSFFLYSKLTVSKSEWQQGFVFSCSVMHEALHNHYTQKSLSLSPGK"}, "B11": {"name": "Clone CH3C.35.23.3.1 (designed binder)", "chain": "PCPAPELLGGPSVFLFPPKPKDTLMISRTPEVTCVVVDVSHEDPEVKFNWYVDGVEVHNAKTKPREEQYNSTYRVVSVLTVLHQDWLNGKEYKCKVSNKALPAPIEKTISKAKGQPREPQVYTLPPSRDELTKNQVSLTCLVKGFYPSDIAVEWESYGTEWVNYKTTPPVLDSDGSFFLYSKLTVSKEEWQQGFVFSCSVMHEALHNHYTQKSLSLSPGK"}, "B12": {"name": "Clone CH3C.35.23.6.1 (designed binder)", "chain": "PCPAPELLGGPSVFLFPPKPKDTLMISRTPEVTCVVVDVSHEDPEVKFNWYVDGVEVHNAKTKPREEQYNSTYRVVSVLTVLHQDWLNGKEYKCKVSNKALPAPIEKTISKAKGQPREPQVYTLPPSRDELTKNQVSLTCLVKGFYPSDIAVEWESFGTEWVNYKTTPPVLDSDGSFFLYSKLTVSKEEWQQGFVFSCSVMHEALHNHYTQKSLSLSPGK"}, "B13": {"name": "Clone CH3C.35.S413 (designed binder)", "chain": "PCPAPELLGGPSVFLFPPKPKDTLMISRTPEVTCVVVDVSHEDPEVKFNWYVDGVEVHNAKTKPREEQYNSTYRVVSVLTVLHQDWLNGKEYKCKVSNKALPAPIEKTISKAKGQPREPQVYTLPPSRDELTKNQVSLTCLVKGFYPSDIAVEWESYGTEWSSYKTTPPVLDSDGSFFLYSKLTVSKSEWQQGFVFSCSVMHEALHNHYTQKSLSLSPGK"}}, "key": {"CH3C.18 Fc-Fab fusion": {"molecular_target": "T1, CH3C.18 Fc-Fab fusion (Homo sapiens (Human), UniProt P0DOX5 230-449 = IgG part)", "T1 construct": "bivalent for TfR; also called CH3C.18.1.18", "T1 Fc": "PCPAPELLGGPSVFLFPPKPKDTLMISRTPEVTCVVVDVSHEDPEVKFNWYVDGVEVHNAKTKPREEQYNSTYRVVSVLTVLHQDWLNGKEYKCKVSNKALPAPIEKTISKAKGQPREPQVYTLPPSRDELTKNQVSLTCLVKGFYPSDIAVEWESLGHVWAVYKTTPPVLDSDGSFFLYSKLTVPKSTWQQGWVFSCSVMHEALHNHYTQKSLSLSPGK", "test": "phage ELISA: phage-displayed human TfR apical domain, dilution series on plate-coated CH3C.18; OD650", "experimental": "(§1) The plates were subsequently washed and anti-M13-HRP was added, and after additional washing the plates were developed with TMB substrate and quenched with 2N […]."}, "[1]": {"molecular_target": "T2, CH3C.35 Fc-Fab fusion (bivalent) (Homo sapiens (Human), UniProt P0DOX5 230-449 = IgG part)", "T2 construct": "bivalent for TfR; also called CH3C.35.bi; CHC3.35", "T2 Fc": "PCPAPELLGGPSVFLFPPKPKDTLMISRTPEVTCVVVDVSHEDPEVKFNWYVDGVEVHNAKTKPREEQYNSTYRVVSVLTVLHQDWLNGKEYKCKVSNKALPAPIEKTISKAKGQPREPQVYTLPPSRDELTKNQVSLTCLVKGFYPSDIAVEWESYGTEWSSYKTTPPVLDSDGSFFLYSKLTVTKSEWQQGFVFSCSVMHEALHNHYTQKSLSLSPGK", "test": "phage ELISA: phage-displayed human TfR apical domain, dilution series on plate-coated CH3C.35; OD650", "experimental": "as §1"}, "[2]": {"molecular_target": "T2, CH3C.35 Fc-Fab fusion (bivalent)", "test": "phage ELISA: phage-displayed TfR apical domain, dilution series on plate-coated CH3C.35; OD650", "experimental": "as §1"}, "streptavidin": {"molecular_target": "streptavidin (Natural streptavidin is a homotetramer; one chain is given.)", "test": "phage ELISA, phage dilution series on plate-coated streptavidin; OD650"}, "[3]": {"molecular_target": "T3, human transferrin receptor (TfR) ectodomain (ECD) (human, UniProt P02786 121-760, biotinylated where captured on streptavidin)", "T3 construct": "also called human TfR; huTfR", "T3 sequence (P02786 121-760)": "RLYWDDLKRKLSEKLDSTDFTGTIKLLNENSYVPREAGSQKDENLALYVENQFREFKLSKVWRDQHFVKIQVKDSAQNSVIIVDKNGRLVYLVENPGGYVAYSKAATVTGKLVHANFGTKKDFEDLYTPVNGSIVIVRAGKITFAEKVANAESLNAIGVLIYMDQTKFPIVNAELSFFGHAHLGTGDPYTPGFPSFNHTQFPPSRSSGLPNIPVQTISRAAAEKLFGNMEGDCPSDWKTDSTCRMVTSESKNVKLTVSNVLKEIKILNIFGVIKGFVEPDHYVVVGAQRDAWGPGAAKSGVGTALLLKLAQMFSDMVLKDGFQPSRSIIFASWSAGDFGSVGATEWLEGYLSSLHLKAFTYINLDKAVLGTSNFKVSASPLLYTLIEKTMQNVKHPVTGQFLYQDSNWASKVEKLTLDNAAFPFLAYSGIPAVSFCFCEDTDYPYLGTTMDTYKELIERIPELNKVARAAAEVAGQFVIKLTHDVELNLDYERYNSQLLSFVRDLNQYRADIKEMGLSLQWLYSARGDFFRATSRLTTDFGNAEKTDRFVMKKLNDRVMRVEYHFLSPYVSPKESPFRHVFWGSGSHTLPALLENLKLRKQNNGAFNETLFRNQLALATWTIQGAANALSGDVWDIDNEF", "test": "phage ELISA, phage dilution series on plate-coated human TfR without and with holo-Tf; OD650", "excerpt": "The CH2C variants were expressed as Fc fusions to Fab fragments by cloning into an expression vector containing an anti-BACE1 benchmark variable region sequence."}, "[4]": {"molecular_target": "T3, human transferrin receptor (TfR) …", "test": "phage ELISA, phage dilution series on plate-coated human TfR without and with holo-Tf; OD650", "remark": "listed apart in the source"}, "[5]": {"molecular_target": "T3, human transferrin receptor (TfR) …", "test": "SPR (Biacore), same protocol as previously described; form of human TfR not stated"}}, "note": "Read-outs that look alike come from different tables or passages of the source.", "data": [{"binder": "B1", "values": [{"measurement": "binding result", "setting": "CH3C.18 Fc-Fab fusion", "value": "binds"}, {"measurement": "binding result", "setting": "[1]", "value": "binds"}]}, {"binder": "B2", "values": [{"measurement": "binding result", "setting": "[2]", "value": "binds"}]}, {"binder": "B3", "values": [{"measurement": "binding result", "setting": "streptavidin", "value": "no binding (tested: dilution 1 (least diluted phage))"}, {"measurement": "binding result", "setting": "[3]", "value": "binds"}]}, {"binder": "B4", "values": [{"measurement": "binding result", "setting": "streptavidin", "value": "no binding (tested: dilution 1 (least diluted phage))"}, {"measurement": "binding result", "setting": "[3]", "value": "binds"}]}, {"binder": "B5", "values": [{"measurement": "binding result", "setting": "[4]", "value": "binds"}]}, {"binder": "B6", "values": [{"measurement": "binding result", "setting": "[4]", "value": "binds"}]}, {"binder": "B7", "values": [{"measurement": "Kd", "setting": "[5]", "value": 2000, "unit": "nM"}]}, {"binder": "B8", "values": [{"measurement": "Kd", "setting": "[5]", "value": 620, "unit": "nM"}]}, {"binder": "B9", "values": [{"measurement": "Kd", "setting": "[5]", "value": 750, "unit": "nM"}]}, {"binder": "B10", "values": [{"measurement": "Kd", "setting": "[5]", "value": 690, "unit": "nM"}]}, {"binder": "B11", "values": [{"measurement": "Kd", "setting": "[5]", "value": 1900, "unit": "nM"}]}, {"binder": "B12", "values": [{"measurement": "Kd", "setting": "[5]", "value": 2100, "unit": "nM"}]}, {"binder": "B13", "values": [{"measurement": "Kd", "setting": "[5]", "value": 1700, "unit": "nM"}]}]}
